Laboratory results: article PMC10871292

Target: Transglutaminase 2 (TG2), wildtype, human, recombinant (human) (UniProt P21980)
Test: SAXS

Transglutaminase 2 (TG2), wildtype, human, recombinant (from UniProt P21980 1-687) (enzyme)
percent dimer (initial state, t=0 ms): 61% | percent monomer (initial state, t=0 ms): 39%
